The target of test [1] is Zot binding sites on human T lymphocytes (CD3+) (human).
Test [2] has as its target Zot receptor / Zot binding sites on human monocytes/macrophages (CD14+) (human).
The target in test [3] is Zot binding sites on human T lymphocytes (CD3+) (human). The experiment in a line: flow cytometry, MESF calibration, several volunteers. On the technique in general: A flow cytometer gives signals particle by particle.
The target in test [4] is Zot receptor / Zot binding sites on human monocytes/macrophages (CD14+) (human). Described as above.
For test [5], the target named is Zot binding sites on human T lymphocytes (CD3+) (human). The experiment in a line: real-time flow cytometry at 37 C, Zot-FITC 40 ug/ml, cells gated on CD3.
Test [6] addresses Zot receptor / Zot binding sites on human monocytes/macrophages (CD14+) (human). The experiment in a line: real-time flow cytometry at 37 C, Zot-FITC 40 ug/ml, cells gated on CD14.
Test [7] has the same target. In words: flow cytometry, MESF calibration, several volunteers; reference: lymphocytes.
Test [8] has as its target Zot binding sites on human T lymphocytes (CD3+) (human). In words: flow cytometry, MFI converted with Quantum 26 MESF kit, saturation conditions.
Test [9] deals with Zot receptor / Zot binding sites on human monocytes/macrophages (CD14+) (human). The test is described as above.
Test [10] has the same target. The experiment in a line: 4-color flow cytometry, Zot-FITC 40 ug/ml on PBMC; reference: T or B lymphocytes.
The target is the same in test [11]. The source holds these as a separate data set.

Where “and” joins values, the source holds several entries; their conditions need not be identical. Equal entries are not always repeated. Bounds are passed on as bounds.

Turning to “purified Zot (cleaved from the MBP-Zot fusion protein with Factor Xa) (from UniProt P38442 9-399)”, the % decrease of Zot-FITC binding in test [1] and in test [2] was 33% each time.

Turning to “Zot-FITC (6xHis-Zot conjugated to fluorescein isothiocyanate, Examples 4-7) (from UniProt P38442 1-399)”, the Zot binding sites/cell (mean of several volunteers) (binding sites/cell) in test [3] is 10700; in [4], 105000. In addition, the time to reach binding equilibrium in [5] and in test [6] was less than 2 min in each case. The fold of binding sites/cell against lymphocytes in test [7] is 10 fold. For the same substance, the Zot-binding sites/cell (binding sites/cell) in test [8] was found to be 9000; in test [9], 106000. Moreover, the fold of binding against T or B lymphocytes in [10] is 5 fold and 8 fold.

In the case of “6xHis-Zot fusion protein (unlabeled) (from UniProt P38442 1-399)”, the % suppression of Zot-FITC mean fluorescence intensity in test [11] is 24% and 43%.

Values taken from patent US6733762.
